B1: Histone-lysine N-methyltransferase NSD2 (Homo sapiens), O96028-1 (parent)
chain: MEFSIKQSPLSVQSVVKCIKMKQAPEILGSANGKTPSCEVNRECSVFLSKAQLSSSLQEGVMQKFNGHDALPFIPADKLKDLTSRVFNGEPGAHDAKLRFESQEMKGIGTPPNTTPIKNGSPEIKLKITKTYMNGKPLFESSICGDSAADVSQSEENGQKPENKARRNRKRSIKYDSLLEQGLVEAALVSKISSPSDKKIPAKKESCPNTGRDKDHLLKYNVGDLVWSKVSGYPWWPCMVSADPLLHSYTKLKGQKKSARQYHVQFFGDAPERAWIFEKSLVAFEGEGQFEKLCQESAKQAPTKAEKIKLLKPISGKLRAQWEMGIVQAEEAASMSVEERKAKFTFLYVGDQLHLNPQVAKEAGIAAESLGEMAESSGVSEEAAENPKSVREECIPMKRRRRAKLCSSAETLESHPDIGKSTPQKTAEADPRRGVGSPPGRKKTTVSMPRSRKGDAASQFLVFCQKHRDEVVAEHPDASGEEIEELLRSQWSLLSEKQRARYNTKFALVAPVQAEEDSGNVNGKKRNHTKRIQDPTEDAEAEDTPRKRLRTDKHSLRKRDTITDKTARTSSYKAMEAASSLKSQAATKNLSDACKPLKKRNRASTAASSALGFSKSSSPSASLTENEVSDSPGDEPSESPYESADETQTEVSVSSKKSERGVTAKKEYVCQLCEKPGSLLLCEGPCCGAFHLACLGLSRRPEGRFTCSECASGIHSCFVCKESKTDVKRCVVTQCGKFYHEACVKKYPLTVFESRGFRCPLHSCVSCHASNPSNPRPSKGKMMRCVRCPVAYHSGDACLAAGCSVIASNSIICTAHFTARKGKRHHAHVNVSWCFVCSKGGSLLCCESCPAAFHPDCLNIEMPDGSWFCNDCRAGKKLHFQDIIWVKLGNYRWWPAEVCHPKNVPPNIQKMKHEIGEFPVFFFGSKDYYWTHQARVFPYMEGDRGSRYQGVRGIGRVFKNALQEAEARFREIKLQREARETQESERKPPPYKHIKVNKPYGKVQIYTADISEIPKCNCKPTDENPCGFDSECLNRMLMFECHPQVCPAGEFCQNQCFTKRQYPETKIIKTDGKGWGLVAKRDIRKGEFVNEYVGELIDEEECMARIKHAHENDITHFYMLTIDKDRIIDAGPKGNYSRFMNHSCQPNCETLKWTVNGDTRVGLFAVCDIPAGTELTFNYNLDCLGNEKTVCRCGASNCSGFLGDRPKTSTTLSSEEKGKKTKKKTRRRRAKGEGKRQSEDECFRCGDGGQLVLCDRKFCTKAYHLSCLGLGKRPFGKWECPWHHCDVCGKPSTSFCHLCPNSFCKEHQDGTAFSCTPDGRSYCCEHDLGAASVRSTKTEKPPPEPGKPKGKRRRRRGWRRVTEGK

The assay covers variants of B1. The following applies: with mdc1_human MDC1, Q14676.
Sequence of mdc1_human MDC1, Q14676 (Q14676 whole entry): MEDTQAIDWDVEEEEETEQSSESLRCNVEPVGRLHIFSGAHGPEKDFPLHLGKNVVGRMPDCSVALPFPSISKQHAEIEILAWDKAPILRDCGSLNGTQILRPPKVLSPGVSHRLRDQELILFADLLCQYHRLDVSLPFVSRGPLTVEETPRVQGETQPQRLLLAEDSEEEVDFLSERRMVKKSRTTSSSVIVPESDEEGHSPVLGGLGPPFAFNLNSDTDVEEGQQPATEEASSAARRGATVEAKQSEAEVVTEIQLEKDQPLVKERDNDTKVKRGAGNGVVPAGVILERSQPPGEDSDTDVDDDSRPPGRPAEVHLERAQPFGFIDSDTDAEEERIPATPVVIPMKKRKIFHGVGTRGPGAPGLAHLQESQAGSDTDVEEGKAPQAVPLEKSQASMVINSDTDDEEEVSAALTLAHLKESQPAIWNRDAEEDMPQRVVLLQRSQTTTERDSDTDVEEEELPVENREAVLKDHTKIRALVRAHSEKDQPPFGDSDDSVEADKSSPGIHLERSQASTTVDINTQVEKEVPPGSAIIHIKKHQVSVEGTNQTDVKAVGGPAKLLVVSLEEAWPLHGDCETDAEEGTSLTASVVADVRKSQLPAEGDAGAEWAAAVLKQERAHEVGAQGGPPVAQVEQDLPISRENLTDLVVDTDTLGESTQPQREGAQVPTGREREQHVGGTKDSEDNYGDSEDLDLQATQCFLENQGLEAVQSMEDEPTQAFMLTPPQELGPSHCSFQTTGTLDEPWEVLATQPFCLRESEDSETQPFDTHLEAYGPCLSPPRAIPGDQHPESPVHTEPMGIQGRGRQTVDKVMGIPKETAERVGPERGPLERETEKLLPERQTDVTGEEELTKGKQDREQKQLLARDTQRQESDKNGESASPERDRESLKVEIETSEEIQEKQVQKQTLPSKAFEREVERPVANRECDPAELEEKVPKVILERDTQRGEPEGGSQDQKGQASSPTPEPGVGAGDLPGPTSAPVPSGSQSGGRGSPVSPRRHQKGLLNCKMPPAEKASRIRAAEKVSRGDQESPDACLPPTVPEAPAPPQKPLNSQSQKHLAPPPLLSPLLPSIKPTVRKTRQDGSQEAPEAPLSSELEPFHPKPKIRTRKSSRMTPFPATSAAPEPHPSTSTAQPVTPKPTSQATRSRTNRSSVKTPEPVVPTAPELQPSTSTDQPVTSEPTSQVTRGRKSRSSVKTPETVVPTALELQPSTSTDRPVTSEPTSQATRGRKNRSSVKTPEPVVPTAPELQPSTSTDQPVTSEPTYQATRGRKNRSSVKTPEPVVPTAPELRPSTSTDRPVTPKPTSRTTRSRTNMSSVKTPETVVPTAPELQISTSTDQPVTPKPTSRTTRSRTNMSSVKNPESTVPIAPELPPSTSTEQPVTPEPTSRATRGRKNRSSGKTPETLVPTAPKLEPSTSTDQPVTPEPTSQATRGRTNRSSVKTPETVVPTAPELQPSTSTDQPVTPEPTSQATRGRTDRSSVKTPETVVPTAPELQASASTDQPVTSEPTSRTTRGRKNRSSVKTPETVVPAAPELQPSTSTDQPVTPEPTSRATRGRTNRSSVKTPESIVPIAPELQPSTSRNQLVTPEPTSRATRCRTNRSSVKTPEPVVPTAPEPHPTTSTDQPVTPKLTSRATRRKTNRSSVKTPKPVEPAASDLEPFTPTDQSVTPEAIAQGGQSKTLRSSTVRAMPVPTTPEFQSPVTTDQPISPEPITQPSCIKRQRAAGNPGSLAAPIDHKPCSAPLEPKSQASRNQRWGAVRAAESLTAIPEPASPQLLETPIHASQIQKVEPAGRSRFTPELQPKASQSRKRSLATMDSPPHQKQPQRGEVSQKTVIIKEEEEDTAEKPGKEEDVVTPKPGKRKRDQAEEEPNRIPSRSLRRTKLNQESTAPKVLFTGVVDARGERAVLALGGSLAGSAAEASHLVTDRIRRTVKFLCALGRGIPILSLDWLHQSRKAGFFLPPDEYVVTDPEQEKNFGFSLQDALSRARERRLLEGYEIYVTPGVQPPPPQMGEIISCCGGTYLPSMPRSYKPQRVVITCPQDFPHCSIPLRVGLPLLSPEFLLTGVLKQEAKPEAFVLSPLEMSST
On to S102A, for which the “effect of a mutation on the interaction” value was “disrupting interaction”.
